# Bridges are numbered along the chain shown (N, C = ends). Where no end group is shown, it is not given here. [ ]: non-standard residue; d: D form. The star is where a group is joined. Acetyl(2-(4-imidazolyl)) = O=C(Cc1c[nH]cn1)*; Aib = CC(C)(N)C(=O)O
# T1: human GIP receptor (human, UniProt P48546 22-466)
# T1 sequence (looked up): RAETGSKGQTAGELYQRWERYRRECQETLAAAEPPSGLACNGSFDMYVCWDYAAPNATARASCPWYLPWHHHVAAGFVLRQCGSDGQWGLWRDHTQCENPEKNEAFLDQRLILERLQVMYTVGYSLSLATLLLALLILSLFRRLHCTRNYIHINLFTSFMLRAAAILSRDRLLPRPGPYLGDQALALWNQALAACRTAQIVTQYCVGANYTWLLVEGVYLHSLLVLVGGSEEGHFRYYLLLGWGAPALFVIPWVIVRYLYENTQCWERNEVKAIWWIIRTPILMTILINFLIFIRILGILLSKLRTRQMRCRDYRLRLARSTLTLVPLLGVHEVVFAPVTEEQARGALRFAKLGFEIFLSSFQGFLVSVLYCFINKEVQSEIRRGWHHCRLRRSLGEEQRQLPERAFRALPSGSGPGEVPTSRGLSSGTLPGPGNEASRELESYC
# Target: human GLP-1 receptor (human, UniProt P43220 24-463)
# Assay: cell-based or functional assay
row,Binder,"in vitro Activity Compared to Native Peptide (%), vs GLP-1 [%]"
1,[Acetyl(2-(4-imidazolyl))][Aib]QGTFTSDYSKYLDEKRQKEFVNWLLAQKC (bridge 16-20; not fully specified (C-terminus)) [triple agonist of SEQ ID NO: 93],5.7
2,[Acetyl(2-(4-imidazolyl))][Aib]QGTFTSDYSIAMDEIHQKDFVNWLLNTKC (bridge 16-20; not fully specified (C-terminus)) [triple agonist of SEQ ID NO: 94],0.5
3,H[Aib]QGTFTSDVSKYLDGQAAQEFVAWLLAGGGPSSGAPPPSC-NH2 [triple agonist of SEQ ID NO: 10],46
4,Y[Aib]QGTFTSDYSKYLDEKRAKEFVQWLLCHHPSSGQPPPS (bridge 16-20; not fully specified (C-terminus)) [triple agonist of SEQ ID NO: 95],2.1
5,Y[Aib]QGTFTSDYSKYLDEKRAKEFVQWLLDHCPSSGQPPPS-NH2 (bridge 16-20) [triple agonist of SEQ ID NO: 96],34.4
6,Y[Aib]QGTFTSDYSKYLDEKRAKEFVQWLLDCHPSSGQPPPS (bridge 16-20; not fully specified (C-terminus)) [triple agonist of SEQ ID NO: 97],10.5
7,Y[Aib]QGTFTSDYSKALDEKAAKEFVNWLLDHHPSSGQPPPSC (bridge 16-20; not fully specified (C-terminus)) [triple agonist of SEQ ID NO: 98],28.1
8,Y[Aib]QGTFTSDYSKALDEKAAKDFVNWLLDHHPSSGQPPPSC (bridge 16-20; not fully specified (C-terminus)) [triple agonist of SEQ ID NO: 99],20.9
9,Y[Aib]QGTFTSDYSKALDEKAAKEFVQWLLDQHPSSGQPPPSC (bridge 16-20; not fully specified (C-terminus); also: ring type not given here) [triple agonist of SEQ ID NO: 100],42.2
10,Y[Aib]QGTFTSDYSKALDEKAAKEFVNWLLDQHPSSGQPPPSC (bridge 16-20; not fully specified (C-terminus); also: ring type not given here) [triple agonist of SEQ ID NO: 101],23.2
11,Y[Aib]QGTFTSDYSKALDEKAAKDFVNWLLDQHPSSGQPPPSC (bridge 16-20; not fully specified (C-terminus); also: ring type not given here) [triple agonist of SEQ ID NO: 102],23.3

# Target: human GCG receptor (human, UniProt P47871 26-477)
# Sequence (P47871 26-477): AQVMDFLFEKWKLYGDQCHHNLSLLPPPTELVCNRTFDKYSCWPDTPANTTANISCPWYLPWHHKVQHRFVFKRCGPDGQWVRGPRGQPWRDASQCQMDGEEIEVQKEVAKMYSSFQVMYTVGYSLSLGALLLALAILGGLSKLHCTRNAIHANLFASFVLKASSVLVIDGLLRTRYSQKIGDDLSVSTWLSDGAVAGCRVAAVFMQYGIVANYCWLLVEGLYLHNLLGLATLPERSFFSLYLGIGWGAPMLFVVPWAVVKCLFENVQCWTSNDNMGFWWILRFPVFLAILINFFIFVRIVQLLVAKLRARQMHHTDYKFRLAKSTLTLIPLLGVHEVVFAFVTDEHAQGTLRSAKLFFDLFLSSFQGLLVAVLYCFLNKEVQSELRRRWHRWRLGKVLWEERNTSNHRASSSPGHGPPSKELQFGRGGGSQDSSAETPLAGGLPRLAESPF
# Assay: cell-based or functional assay
row,Binder,"in vitro Activity Compared to Native Peptide (%), vs Glucagon [%]"
1,[Acetyl(2-(4-imidazolyl))][Aib]QGTFTSDYSKYLDEKRQKEFVNWLLAQKC (bridge 16-20; not fully specified (C-terminus)) [triple agonist of SEQ ID NO: 93],0.3
2,[Acetyl(2-(4-imidazolyl))][Aib]QGTFTSDYSIAMDEIHQKDFVNWLLNTKC (bridge 16-20; not fully specified (C-terminus)) [triple agonist of SEQ ID NO: 94],< 0.1
3,H[Aib]QGTFTSDVSKYLDGQAAQEFVAWLLAGGGPSSGAPPPSC-NH2 [triple agonist of SEQ ID NO: 10],< 0.1
4,Y[Aib]QGTFTSDYSKYLDEKRAKEFVQWLLCHHPSSGQPPPS (bridge 16-20; not fully specified (C-terminus)) [triple agonist of SEQ ID NO: 95],0.4
5,Y[Aib]QGTFTSDYSKYLDEKRAKEFVQWLLDHCPSSGQPPPS-NH2 (bridge 16-20) [triple agonist of SEQ ID NO: 96],195
6,Y[Aib]QGTFTSDYSKYLDEKRAKEFVQWLLDCHPSSGQPPPS (bridge 16-20; not fully specified (C-terminus)) [triple agonist of SEQ ID NO: 97],62.8
7,Y[Aib]QGTFTSDYSKALDEKAAKEFVNWLLDHHPSSGQPPPSC (bridge 16-20; not fully specified (C-terminus)) [triple agonist of SEQ ID NO: 98],8.2
8,Y[Aib]QGTFTSDYSKALDEKAAKDFVNWLLDHHPSSGQPPPSC (bridge 16-20; not fully specified (C-terminus)) [triple agonist of SEQ ID NO: 99],14.9
9,Y[Aib]QGTFTSDYSKALDEKAAKEFVQWLLDQHPSSGQPPPSC (bridge 16-20; not fully specified (C-terminus); also: ring type not given here) [triple agonist of SEQ ID NO: 100],12.7
10,Y[Aib]QGTFTSDYSKALDEKAAKEFVNWLLDQHPSSGQPPPSC (bridge 16-20; not fully specified (C-terminus); also: ring type not given here) [triple agonist of SEQ ID NO: 101],13.9
11,Y[Aib]QGTFTSDYSKALDEKAAKDFVNWLLDQHPSSGQPPPSC (bridge 16-20; not fully specified (C-terminus); also: ring type not given here) [triple agonist of SEQ ID NO: 102],29.5

# Target: T1, human GIP receptor
# Assay: cell-based or functional assay
row,Binder,"in vitro Activity Compared to Native Peptide (%), vs GIP [%]"
1,[Acetyl(2-(4-imidazolyl))][Aib]QGTFTSDYSKYLDEKRQKEFVNWLLAQKC (bridge 16-20; not fully specified (C-terminus)) [triple agonist of SEQ ID NO: 93],0.7
2,[Acetyl(2-(4-imidazolyl))][Aib]QGTFTSDYSIAMDEIHQKDFVNWLLNTKC (bridge 16-20; not fully specified (C-terminus)) [triple agonist of SEQ ID NO: 94],< 0.1
3,H[Aib]QGTFTSDVSKYLDGQAAQEFVAWLLAGGGPSSGAPPPSC-NH2 [triple agonist of SEQ ID NO: 10],< 0.1
4,Y[Aib]QGTFTSDYSKYLDEKRAKEFVQWLLCHHPSSGQPPPS (bridge 16-20; not fully specified (C-terminus)) [triple agonist of SEQ ID NO: 95],< 0.1
5,Y[Aib]QGTFTSDYSKYLDEKRAKEFVQWLLDHCPSSGQPPPS-NH2 (bridge 16-20) [triple agonist of SEQ ID NO: 96],5.2
6,Y[Aib]QGTFTSDYSKYLDEKRAKEFVQWLLDCHPSSGQPPPS (bridge 16-20; not fully specified (C-terminus)) [triple agonist of SEQ ID NO: 97],2.6
7,Y[Aib]QGTFTSDYSKALDEKAAKEFVNWLLDHHPSSGQPPPSC (bridge 16-20; not fully specified (C-terminus)) [triple agonist of SEQ ID NO: 98],47.1
8,Y[Aib]QGTFTSDYSKALDEKAAKDFVNWLLDHHPSSGQPPPSC (bridge 16-20; not fully specified (C-terminus)) [triple agonist of SEQ ID NO: 99],57.7
9,Y[Aib]QGTFTSDYSKALDEKAAKEFVQWLLDQHPSSGQPPPSC (bridge 16-20; not fully specified (C-terminus); also: ring type not given here) [triple agonist of SEQ ID NO: 100],118
10,Y[Aib]QGTFTSDYSKALDEKAAKEFVNWLLDQHPSSGQPPPSC (bridge 16-20; not fully specified (C-terminus); also: ring type not given here) [triple agonist of SEQ ID NO: 101],40.1
11,Y[Aib]QGTFTSDYSKALDEKAAKDFVNWLLDQHPSSGQPPPSC (bridge 16-20; not fully specified (C-terminus); also: ring type not given here) [triple agonist of SEQ ID NO: 102],58
